Measured values from publication PMC10288911 (2023).

Tests used:
[1] = target: FcRn/β2m heterodimers (SPR analyte) (UniProt P55899 24-365; P61769 21-119); assay: SPR; pH 7.4; IgG captured by gp120
[2] = target: 6×His-tagged FcRn/β2m (UniProt P55899 24-365; P61769 21-119); assay: BLI; pH 7.4; FcRn immobilised
[3] = target: 6×His-tag cleaved FcRn/β2m (UniProt P55899 24-365; P61769 21-119); assay: BLI; pH 7.4; IgG immobilised

| Binder | Kd [1] | Kd [2] | Kd [3] |
| --- | --- | --- | --- |
| VRC07-523LS.v1 (antibody) chain 1: QVRLSQSGGQMKKPGDSMRISCRASGYEFINCPINWIRLAPGKRPEWMGWMKPRFGAVSYARQLQGRVTMTRQLSQDPDDPDWGTAFLELRSLTSDDTAVYFCTRGKYCTARDYYNWDFEHWGQGTPVTVSS chain 2: LTQSPGTLSLSPGETAIISCRTSQYGSLAWYQQRPGQAPRLVIYSGSTRAAGIPDRFSGSRWGPDYNLTISNLESGDFGVYYCQQYEFFGQGTKVQVD | 10000 nM | 930 nM | 180 nM |
| VRC07-523LS.v37 (antibody) chain 1: QVRLSQSGGQMKKPGDSMRISCQASGYEFINCPINWIRLAPGKRPEWMGWMKPRFGAVSYARQLQGRVTMTRQLSQDPDDPDWGTAFLELRSLTSDDTAVYFCTRGQYCTARDYYNWDFEHWGQGTPVTVSS chain 2: LTQSPGTLSLSPGETAIISCETSQYGSLAWYQQRPGQAPRLVIYSGSTRAAGIPDRFSGSRWGPDYNLTISNLESGDFGVYYCQQYEFFGQGTKVQVD | 9600 nM | 5400 nM | 180 nM |

The next binders have a lower Kd [1] than those just listed; values first:

| Kd [1] | Kd [2] | Kd [3] | Binder |
| --- | --- | --- | --- |
| 6300 nM | 6000 nM | 170 nM | VRC07-523LS.v34 (antibody) chain 1: QVRLSQSGGQMKKPGDSMRISCSASGYEFINCPINWIRLAPGKRPEWMGWMKPRFGAVSYARQLQGRVTMTRQLSQDPDDPDWGTAFLELRSLTSDDTAVYFCTRGSYCTARDYYNWDFEHWGQGTPVTVSS chain 2: LTQSPGTLSLSPGETAIISCETSQYGSLAWYQQRPGQAPRLVIYSGSTRAAGIPDRFSGSRWGPDYNLTISNLESGDFGVYYCQQYEFFGQGTKVQVD |
| 3800 nM | 1600 nM | 170 nM | VRC07-523LS.v23 (antibody) chain 1: QVRLSQSGGQMKKPGDSMRISCRASGYEFINCPINWIRLAPGKRPEWMGWMKPRFGAVSYARQLQGRVTMTRQLSQDPDDPDWGTAFLELRSLTSDDTAVYFCTRGKYCTARDYYNWDFEHWGQGTPVTVSS chain 2: LTQSPGTLSLSPGETAIISCSTSQYGSLAWYQQRPGQAPRLVIYSGSTRAAGIPDRFSGSRWGPDYNLTISNLESGDFGVYYCQQYEFFGQGTKVQVD |
